{"source": "paper PMC5487486", "key": {"[1]": {"biological_target": "TaSPA (Triticum aestivum)", "sequence (Q7X9A8 whole entry, the tested form may be a part)": "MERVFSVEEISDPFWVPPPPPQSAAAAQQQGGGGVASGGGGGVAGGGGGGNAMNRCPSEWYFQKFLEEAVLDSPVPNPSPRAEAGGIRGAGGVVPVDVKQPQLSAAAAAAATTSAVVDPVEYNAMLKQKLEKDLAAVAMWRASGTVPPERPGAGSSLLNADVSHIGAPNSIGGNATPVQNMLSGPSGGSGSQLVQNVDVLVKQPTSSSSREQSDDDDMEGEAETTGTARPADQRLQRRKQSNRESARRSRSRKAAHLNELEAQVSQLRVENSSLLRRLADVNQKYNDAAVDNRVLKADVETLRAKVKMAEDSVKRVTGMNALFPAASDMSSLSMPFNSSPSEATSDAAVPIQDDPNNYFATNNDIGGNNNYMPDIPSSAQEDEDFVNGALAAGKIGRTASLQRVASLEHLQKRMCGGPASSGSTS", "assay": "two-hybrid; Gal4 system (pGADT7 and pGBKT7), yeast strain Y187, read out by growth and β-galactosidase (LacZ) activity, three replicates"}, "[2]": {"biological_target": "TaFUSCA3 N-terminal region (1st to 60th amino acids) (Triticum aestivum)", "assay": "two-hybrid; Gal4 system (pGADT7 and pGBKT7), yeast strain Y187, read out by growth and β-galactosidase (LacZ) activity, three replicates"}}, "data": [{"substance": "TaFUSCA3 (natural protein)", "values": [{"measurement": "fold β-galactosidase activity over AD-FUSCA3* with BD-SPA", "setting": "[1]", "result": 2, "unit": "fold"}]}, {"substance": "TaSPA (from UniProt Q7X9A8 1-425) (natural protein)", "values": [{"measurement": "fold β-galactosidase activity over the B3 domain with SPA", "setting": "[2]", "result": 4, "unit": "fold"}]}]}
